Consider one substance from article PMC7335169.

This test deals with SAM complex (Sorting and Assembly Machinery complex) from Myceliophthora thermophila: Sam50, Sam35 and Sam37 (Myceliophthora thermophila). In words: cryo-EM structure; SAM complex in detergent GDN (0.02%), 20 mM HEPES pH 8.0, 150 mM NaCl; monomer and three dimer conformations, 3.0-3.9 Å; the authors call the dimers non-physiological.

As a reminder, the stoichiometry N is the number of molecules, sites or subunits per partner or assembly. In turn, “SAM complex (Sorting and Assembly Machinery complex) from Myceliophthora thermophila: Sam50, Sam35 and Sam37” registered a stoichiometry N of 2.
